Results from US20240043489A1, “Cytokine Prodrugs Comprising a Cleavable Linker” (Trutino Biosciences Inc., priority 2020, published 2024).
Where “and” joins values, the source holds several entries; their conditions need not be identical. Equal entries are not always repeated. Where two headings read alike, the source gives them in different places.

Experiments:
HEK-Blue™ IL-2 cells = assay: HEK-Blue IL2 reporter assay (SEAP, OD630); format: cell-based; conditions: Table 5C
Procedure: Recombinant MMP9 and/or MMP2 (R&D Systems) was first activated with p-aminophenylmercuric acetate and this activated protease or equivalent amount of activating solution without the protease was used to digest or mock digest the fusion protein for 1 hr, 2 hr, 4 hr and overnight (18-22 hr) at 37 C. Cleavage assays are set up in TCNB buffer: 50 mM Tris, 10 mM CaCl2), 150 mM NaCl, 0.05% Brij-35 (w/v), pH 7.5. Digested protein was aliquoted and stored at −80° C. prior to testing. Aliquots of digests were subsequently analyzed by SDS-PAGE followed by Western blotting to evaluate the extent of cleavage. Digests were also assessed in functional assays such as CTLL-2 proliferation and HEK-Blue Interleukin reporter assays. As shown in FIGS. 2A-E, essentially complete cleavage by MMP9 protease of the fusion proteins with functional site is seen after overnight incubation. In contrast, proteins containing a scrambled MMP cleavage site are not cut (FIG. 2E). HEK-Blue™ IL-2 cells are specifically designed to monitor the activation of the JAK-STAT pathway induced by IL-2. Indeed, stimulation with human or murine IL-2 triggers the JAK/STAT5 pathway and induces secreted embryonic alkaline phosphatase (SEAP) production. SEAP can be readily monitored when using QUANTI-Blue™, a SEAP detection medium. These cells respond to human and murine IL-2. For the HEK Blue assay, untreated and digested samples are titrated and added to 50 000 HEK Blue cells per well in 200 ul medium in a 96-well plate and incubated at 37C in 5% CO2 for 20-24 hr. The following day, levels of SEAP are measured by adding 20 uL of cell supernatant to QuantiBlue reagent, followed by 1-3 h incubation at 37C and reading absorbance at 630 nm. FIGS. 3C-J, 3Q-Y and Table 5B-5C show results obtained from IL2 fusion proteins tested in HEK Blue IL2 assay.

heparin = assay: IL-2 fusion protein plate binding assay to Heparin-BSA conjugate; conditions: pH 6 vs pH 7.5, plate assay
Procedure: 96-well plates were coated with 25 ug/mL of Heparin-BSA conjugate (provided by Dr. Mueller, Boerhinger Ingelheim) or control BSA for 18-22 h at room temperature on shaker (350 rpm). After washing, wells are blocked with PBS-0.05% Tween 20/1% BSA for 90 min, then fusion proteins are titrated in 1% BSA/PBS-0.05% Tween 20 pH 7.5 and/or pH 6 and added for 2 hr at room temperature with shaking. After washing, an anti-mouse IL-2 biotin-labelled detection antibody (JES6-5H4, ThermoFisher) is added and binding is detected using Ultra Strepavidin HIRP (ThermoFisher). The plate was developed by adding the chromogenic tetramethylbenzidine substrate (Ultra TMB, ThermoFisher). The reaction is stopped by addition of 0.5M H2SO4 and the absorbance is read at 450-650 nm.

[1] = Full-length drug levels in serum by ELISA; format: in vivo, mice; conditions: Construct Y 20 mg/kg Day 21 (8 days after last IV) vs Construct B 20 mg/kg Day 17 (4 days after)
Procedure: We developed an ELISA assay to detect and quantify fusion proteins comprising IL-2 and IL-2Rα moieties. Wells of a 96-well plate are coated overnight with 100 uL of a rat anti-mouse IL-2 monoclonal antibody (JES6-1A12; ThermoFisher) at […] in PBS. After washing, wells are blocked with TBS/0.05% Tween 20/1% BSA, then fusion proteins and/or unknown biological samples are added for 1 hr at room temperature. After washing, an anti-mouse IL-2Rα biotin-labelled detection antibody (BAF2438, R&D systems) is added and binding is detected using Ultra Strepavidin HRP (ThermoFisher). The ELISA plate was developed by adding the chromogenic tetramethylbenzidine substrate (Ultra TMB, ThermoFisher). The reaction is stopped by addition of 0.5M H2SO4 and the absorbance is read at 450-650 nm.
Additional serum samples collected at Day 17 (Construct B 20 mg/kg) and Day 21 (Construct Y 20 mg/kg), 4 days and 8 days respectively after the last IV injection, were assayed for full-length IL-2 fusion drug.

B16F10 melanoma = assay: In vivo efficacy of retention linker IL-2 drugs in B16F10 syngeneic model (Example 17); parameters: species or system mice; conditions: 20 mg/kg IV Q3D, 5 doses
Procedure: In a first efficacy study, C57BL/6 mice were subcutaneously inoculated with B16F10 melanoma cells and when the average tumor volume reached on average 70-90 mm^3, animals were randomized into 5 groups based on tumor volumes (n=6 mice per treatment group). Mice were dosed intravenously every 3 days (Q3D) for a total of 5 doses according to following design:
In a second efficacy study in the same model, C57BL/6 mice were subcutaneously inoculated with B16F10 melanoma cells and when the average tumor volume reached on average 70-90 mm^3, animals were randomized into 5 groups based on tumor volumes (n=6 mice per treatment group). Mice were dosed intravenously every 3 days (Q3D) for a total of 5 doses according to following design:
On Day 20, mice received an additional dose of drug, animals were sacrificed 24 hrs later and tissues and blood (processed to serum) were collected and stored at −80C for further testing. […] This is most likely due to the higher levels of both circulating drugs in serum and resident drug in TME, which can exert prolonged anti-tumor activity even after an extended dosing holiday.

B1: Construct Y: SEQ ID NO 809: m IL2(C140S)-VRIQRKKEKMKET-MMPcs1-2x(G4S)-mIL2Ra (1-215)-mu IgG1 Fc (protein)
chain: APTSSSTSSSTAEAQQQQQQQQQQQQHLEQLLMDLQELLSRMENYRNLKLPRMLTFKFYLPKQATELKDLQCLEDELGPLRHVLDLTQSKSFQLEDAENFISNIRVTVVKLKGSDNTFECQFDDESATVVDFLRRWIAFSQSIISTSPQVRIQRKKEKMKETGPLGVRGGGGGSGGGGSELCLYDPPEVPNATFKALSYKNGTILNCECKRGFRRLKELVYMRCLGNSWSSNCQCTSNSHDKSRKQVTAQLEHQKEQQTTTDMQKPTQSMHQENLTGHCREPPPWKHEDSKRIYHFVEGQSVHYECIPGYKALQRGPAISICKMKCGKTGWTQPQLTCVDEREHHRFLASEESQGSRNSSPESETSCPITTTDFPQPTETTAMTETFVLTMEYKIEGRMDGCKPCICTVPEVSSVFIFPPKPKDVLTITLTPKVTCVVVDISKDDPEVQFSWFVDDVEVHTAQTQPREEQFNSTFRSVSELPIMHQDWLNGKEFKCRVNSAAFPAPIEKTISKTKGRPKAPQVYTIPPPKEQMAKDKVSLTCMITDFFPEDITVEWQWNGQPAENYKNTQPIMDTDGSYFVYSKLNVQKSNWEAGNTFTCSVLHEGLHNHHTEKSLSHSPGK
EC50 (HEK-Blue™ IL-2 cells; cleaved with MMP9, read-out: +MMP EC50): 0.0109 nM
EC50 (HEK-Blue™ IL-2 cells; uncleaved, read-out: −MMP EC50): 1.23 nM
heparin binding (qualitative) (heparin): bind heparin in dose-dependent manner and with higher affinity than Construct B
drug levels in circulation relative to Construct B [1]: more than 10 fold
TGI (%) D 13 (B16F10 melanoma): 77% and 76.59%
